Results published in patent publication US12428627B2, “Mutant p-hydroxyphenylpyruvate dioxygenase, and coding nucleic acid and use thereof” (Qingdao Kingagroot Chemical Compound Co., Ltd., priority 2018, dated 2025).

Test system: transgenic rice
Experiment: Herbicide resistance of transgenic rice (T0, T1 generation) sprayed with shuangzuocaotong
Type: in vivo
From the text: • 1. Construction of overexpression vector • 1) Primers: primers were designed according to the selected restriction sites and the nucleotide sequence of the gene itself to amplify the three-site mutant HPPD (H141R/G342D/D370N) (OsHPPD3M). The designed primers were synthesized by Beijing Qingke Biotechnology Co., Ltd.: HPPD-F, […] ATGCCTCCCACT CCCACCC, HPPD-R, […] GGC. • 2) PCR amplification: the gene of interest was amplified by using the synthesized primer and Q5 DNA polymerase (NEB, New England Biolabs, Boston, USA). The amplified product was assayed by agarose gel electrophoresis, and the product was recovered according to operational instructions of the TIANquick Midi Purification kit. After the completion of the recovery, the concentration of extracted DNA was determined by Nanodrop. • 3) Construction of a rice overexpression vector: the rice overexpression vector pCAMBIA1301-OsHPPD3M was constructed with the recovered HPPD fragments and plasmid pCAMBIA1301 digested by KpnI and HindIII by using the HB-in Fusions™ seamless cloning kit of HanBio Biotechnology Co., Ltd., (Shanghai), and then transformed into the competent E. coli DH5α to obtain a positive clone; the positive clone was transformed into Agrobacterium after sequencing and restriction endonuclease digestion. • 2. […]

B1: H141R/G342D/D370N: three-site mutant rice HPPD (OsHPPD3M) (protein, listed as Oryza sativa)
chain: MPPTPTPTATTGAVSAAAAAGENAGFRLVGHRRFVRANPRSDRFQALAFHHVELWCADAASAAGRFAFALGAPLAARSDLSTGNSAHASLLLRSASVAFLFTAPYGGDHGVGADAATTASIPSFSPGAARRFAADHGLAVRAVALRVADAADAFRASVAAGARPAFQPADLGGGFGLAEVELYGDVVLRFVSHPDGADAPFLPGFEGVSNPGAVDYGLRRFDHVVGNVPELAPVAAYISGFTGFHEFAEFTAEDVGTAESGLNSVVLANNAETVLLPLNEPVHGTKRRSQIQTYLDHHGGPGVQHIALASDDVLGTLREMRARSAMGGFEFLAPPPPNYYDDVRRRAGDVLSEEQINECQELGVLVDRDNQGVLLQIFTKPVGDRPTFFLEMIQRIGCMEKDESGQEYQKGGCGGFGKGNFSELFKSIEEYEKSLEAKQAPTVQGS
modifications: The amino acid sequence of Wild-Type rice HPPD protein (OsHPPD _WT)
With B1 the “shuangzuocaotong rate tolerated, T0 generation plants” value (T0 plants expressing the mutant, spraying) was 8-16 grams active ingredient per mu, the “shuangzuocaotong rate tolerated, T1 generation plants” value (T1 plants expressing the mutant, spraying) was 32-64 grams active ingredient per mu and the “resistance multiple of transgenic rice to HPPD-inhibiting herbicide” value (overexpression, field rate of shuangzuocaotong 4 g a.i./mu) was “at least 4”.
